Like-named read-outs stand apart in the source and are kept apart here. Blank lines part the entries; values can stand above or below the binder they belong to. Bridge positions count the residues as written; N and C are the ends. Primed or numbered codes have the meaning given here. Ends that are not written are not given here. * marks the point of attachment. PEG8(3) = PEG8 side chain conjugate on Lys; Isovaleryl = CC(C)CC(=O)*
Experiments:
Assay in all cases: cell-based or functional assay
[1] = target: T1, human ferroportin (SLC40A1) fused in frame with GFP, stably expressed in HEK293 cells (human, UniProt Q9NP59 1-571)
T1 sequence (looked up): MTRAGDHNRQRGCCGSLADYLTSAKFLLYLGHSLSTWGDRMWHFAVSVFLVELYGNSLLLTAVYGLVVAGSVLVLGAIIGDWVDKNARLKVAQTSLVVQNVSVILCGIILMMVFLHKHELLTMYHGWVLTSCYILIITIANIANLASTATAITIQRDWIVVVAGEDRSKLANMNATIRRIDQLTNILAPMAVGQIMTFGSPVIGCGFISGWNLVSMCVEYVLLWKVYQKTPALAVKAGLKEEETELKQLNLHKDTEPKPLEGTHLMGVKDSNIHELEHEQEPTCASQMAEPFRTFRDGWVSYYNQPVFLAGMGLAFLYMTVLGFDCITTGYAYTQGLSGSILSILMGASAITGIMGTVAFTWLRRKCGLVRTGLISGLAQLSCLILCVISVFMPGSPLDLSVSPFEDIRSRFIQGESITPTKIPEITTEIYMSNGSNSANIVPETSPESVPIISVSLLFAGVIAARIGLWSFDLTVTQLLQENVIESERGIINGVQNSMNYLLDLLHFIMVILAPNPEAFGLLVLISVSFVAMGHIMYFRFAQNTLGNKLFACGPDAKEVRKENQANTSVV

[2] = target: T2, human ferroportin (SLC40A1) fused in frame with GFP, stably expressed on HEK293 cells (human, UniProt Q9NP59 1-571)
T2 sequence (looked up): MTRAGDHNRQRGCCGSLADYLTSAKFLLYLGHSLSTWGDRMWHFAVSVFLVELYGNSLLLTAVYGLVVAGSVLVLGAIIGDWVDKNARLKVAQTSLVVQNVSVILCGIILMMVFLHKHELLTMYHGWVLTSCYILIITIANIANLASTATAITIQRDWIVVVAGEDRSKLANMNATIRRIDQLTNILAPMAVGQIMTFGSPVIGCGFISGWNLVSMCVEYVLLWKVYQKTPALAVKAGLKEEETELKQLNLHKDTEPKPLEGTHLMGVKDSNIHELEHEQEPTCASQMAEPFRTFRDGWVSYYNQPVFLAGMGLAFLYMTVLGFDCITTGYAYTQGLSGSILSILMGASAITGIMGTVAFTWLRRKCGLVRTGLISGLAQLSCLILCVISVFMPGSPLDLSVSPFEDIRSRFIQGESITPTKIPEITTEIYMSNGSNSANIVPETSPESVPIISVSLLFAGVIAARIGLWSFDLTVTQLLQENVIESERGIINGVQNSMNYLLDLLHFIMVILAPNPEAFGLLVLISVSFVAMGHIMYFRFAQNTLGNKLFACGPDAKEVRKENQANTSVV

[3] = target: T2, human ferroportin (SLC40A1) fused in …; remark: listed apart in the source
[4] = target: T2, human ferroportin (SLC40A1) fused in …; remark: listed apart in the source
[5] = target: T1, human ferroportin (SLC40A1) fused in …; remark: listed apart in the source
[6] = target: T1, human ferroportin (SLC40A1) fused in …; remark: listed apart in the source
[7] = target: T1, human ferroportin (SLC40A1) fused in …; remark: listed apart in the source
[8] = target: T1, human ferroportin (SLC40A1) fused in …; remark: listed apart in the source
[9] = target: T1, human ferroportin (SLC40A1) fused in …; remark: listed apart in the source

Binder: H-DTHFPCIAF-NH2 [Compound 51 (DTHFPCIAF-NH2)]
EC50 (nM) (n > 3) [2]: 382 nM

Binder: H-DTHFPCIIA-NH2 [Compound 278 (DTHFPCIIA-NH2)]
EC50 (nM) (n > 3) [2]: > 1000 nM

Binder: Isovaleryl-DTHFPCIKFEPRSKGCK-NH2 (not fully specified (bridges); cysteine pairing not given here) [Compound 184]
In Vitro Activity EC50 [5]: 16 nM

Binder: Isovaleryl-DTHFPCIIFGPRSRGWVCK-NH2 (disulfide 6-18 (inferred)) [Compound 3]
Log dilutions EC50 (nM) (n > 3) [1]: 15 nM
In Vitro Activity EC50 [5]: 15 nM

Binder: H-DAHFPCIIF-NH2 [Compound 52 (DAHFPCIIF-NH2)]
EC50 (nM) (n > 3) [2]: 388 nM

Binder: Isovaleryl-DTHFPICIFGPRSK(PEG8(3))GWVC-NH2 (not fully specified (bridges); cysteine pairing not given here) [Compound 176]
In Vitro Activity EC50 [5]: 6 nM

Binder: Isovaleryl-DTHFPCIKFEPRSKGWVCK-NH2 (not fully specified (bridges); cysteine pairing not given here) [Compound 181]
In Vitro Activity EC50 [5]: 15 nM

Binder: Isovaleryl-DTHFPICIFGPRSKGWVC-NH2 (disulfide 7-18 (inferred)) [Compound 2]
Log dilutions EC50 (nM) (n > 3) [1]: 4.1 nM
In Vitro Activity EC50 [5]: 5 nM

Binder: H-DTHFPICAFGPRSKGWVCM-NH2 (disulfide 7-18 (inferred)) [Compound 68]
EC50 (nM) (n > 3) [9]: > 10000 nM

More lines, now with the values ahead:

Log dilutions EC50 (nM) (n > 3) [1]: 2.2 nM
B1: Compound 353 (peptide)
peptide: Isovaleryl-DTHFPICIFGPRSKGWVC-NH2
modifications: disulfide 7-18 (inferred); not fully specified (residue 14); also: dimer through DIG linker on εN of Lys14 of each monomer

EC50 (nM), ferroportin degradation (loss of ferroportin-GFP fluorescence) [3]: > 10000 nM
B2: RI-Mini Hepcidin (Hy-DPhe-DIle-DCys-DIle-DPro-DPhe-DHis-DThr-DAsp-NH2) (peptide)
peptide: FICIPFHTD
modifications: all residues are D-amino acids (retro inverse: reversed sequence in all D amino acids); C-terminal amide (-NH2)

EC50 (nM), ferroportin degradation (loss of ferroportin-GFP fluorescence) [3]: 712 nM
EC50 (nM) (n > 3) [4]: 712 nM
Binder: H-DTHFPICIF-NH2 [Mini-Hepcidin 1-9 (Hy-DTHFPICIF-NH2)]

EC50 (nM) (n > 3) [2]: > 1000 nM
Binder: H-DTHFPCAIF-NH2 [Compound 279 (DTHFPCAIF-NH2)]

EC50 (nM) (n > 3) [2]: > 1000 nM
Binder: H-DTHFACIIF-NH2 [Compound 280 (DTHFACIIF-NH2)]

Log dilutions EC50 (nM) (n > 3) [1]: 5 nM
B3: Compound 352 (peptide)
peptide: Isovaleryl-DTHFPCIIFGPRSRGWVCK-NH2
modifications: disulfide 6-18 (inferred); not fully specified (residue 19); also: dimer through DIG linker on εN of Lys19 of each monomer

EC50 (nM) (n > 3) [2]: > 1000 nM
Binder: H-ATHFPCIIF-NH2 [Compound 284 (ATHFPCIIF-NH2)]

Log dilutions EC50 (nM) (n > 3) [6]: 15 nM
Binder: Isovaleryl-DTHFPCIKFK-NH2 (also: homodimer linked by DIG linker through Lys10 of each monomer) [Compound 346]

Log dilutions EC50 (nM) (n > 3) [6]: 18 nM
Binder: H-DTHFPCIKF-NH2 (also: homodimer with IDA-(β-Ala) linking moiety, attachment site not given here) [Compound 348]

Log dilutions EC50 (nM) (n > 3) [6]: > 1000 nM
Binder: DTHFPCIKF-NH2 (not fully specified; printed as [PEG25]-(DTHFPCIKF-NH2)2) [Compound 351]

Log dilutions EC50 (nM) (n > 3) [6]: 8 nM
EC50 (nM) (n > 3) [7]: 8 nM
Binder: Isovaleryl-DTHFPCIKFK-NH2 (also: homodimer via disulfide between Cys6 of each monomer) [Compound 345]

% Activity At 1 uM [8]: 100%
EC50 (nM) (n = 3) [8]: 3 nM
Log dilutions EC50 (nM) (n > 3) [6]: 6 nM
EC50 (nM) (n > 3) [7]: 3 nM
Binder: Isovaleryl-DTHFPCIKF-NH2 (also: homodimer via disulfide between Cys6 of each monomer) [Compound 326]

Log dilutions EC50 (nM) (n > 3) [6]: 5 nM
B4: Compound 349 (peptide)
peptide: Isovaleryl-DTHFPCIKF-NH2
modifications: also: homodimer with IDA-(β-Ala)-Palm linking moiety, attachment site not given here

EC50 (nM) (n > 3) [2]: 739 nM
Binder: H-DTAFPCIIF-NH2 [Compound 283 (DTAFPCIIF-NH2)]

Source: US20250340608A1 (PROTAGONIST THERAPEUTICS, published 2025)
